Experimental findings from patent US20230365699A1 (published 2023) are described below.

The target in assay [1] is human BCMA (B-cell maturation antigen) expressed on cells (human) (UniProt Q02223). The experiment in a line: flow cytometry, hBCMA-expressing HEK293 cells against parental HEK293 cells. (In general: A flow cytometer gives signals particle by particle.)
Assay [2] deals with T1, human BCMA (B-cell maturation antigen) expressed on cells (human, UniProt Q02223 1-184).
T1 construct: whole, on cells; also called hBCMA; hBCMA/HEK293 cell line
T1 sequence (looked up): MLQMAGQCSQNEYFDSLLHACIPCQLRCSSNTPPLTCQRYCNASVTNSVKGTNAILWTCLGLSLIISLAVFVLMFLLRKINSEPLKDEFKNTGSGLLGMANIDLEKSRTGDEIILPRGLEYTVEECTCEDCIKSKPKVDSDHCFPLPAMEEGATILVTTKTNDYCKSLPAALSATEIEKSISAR
The assay is described as follows: flow cytometry, hBCMA-overexpressing HEK293 compared with OPM2 and RPMI-8226 cells.

The target in assay [3] is T1, human BCMA (B-cell maturation antigen) …. The assay is described as follows: flow cytometry on hBCMA-expressing HEK293 cells.

B1: BCMA-18 scFv (scFv)
scFv: EVQLLESGGGLVQPGGSLRLSCAASGFTFSSYWMSWHRQAPGKGPEWVAHINQDGSEKYYVDSVKGRFTISRDNAESSLYLQMNSLRAEDTAVYYCARWLAVTNWGQGTLVTVSSGGGGSGGGGSGGGGSQSVLTQPPSASGTPGQRVTISCSGSGSNIGSNDVSWYQQIPGTAPKLLIYWNDQRPSGVPDRFSGSKSGTSASLAISGLRSEDEADYYCAAWDDSLNGWVFGGGTKLTVL
Turning to B1, the fold selective binding (hBCMA-expressing HEK293 over parental HEK293) in assay [1] turned out to be 2.2 fold.

B2: BCMA-20 scFv (scFv)
scFv: EVQLLESGGGLVQPGRSLRLSCAASGFTFDDYAMHWVRQAPGKGLEWVSGISWNSGSIGYADSVKGRFTISRDNAKNSLYLQMNSLRAEDTALYYCAKGGLGITPYYFDYWGQGTLVTVSSGGGGSGGGGSGGGGSQPVLTQPPSASGTPGQRVTISCSGGKTVNWFRQVPGTAPQLLIYSNDQRPSGVPDRFSGSKSGSSASLDISGLQSEDEAYYYCGSWDDSLNAWVFGGETKLTVL
B2: the fold selective binding (hBCMA-expressing HEK293 over parental HEK293) in assay [1] is 10.8 fold.

B3: BCMA-30 scFv (scFv, V domains shown)
VH: QVQLVQSGGGLVQPGRSLRLSCAASGFTFGDYAMHWVRQAPGKGLEWVSGISWNSGSIGYADSVKGRFTISRDNAKNSLYLQMNSLRAEDTAVYYCARDLDPDDAFDIWGQGTMVTVSS
For B3, the binding result in assay [2] is listed as “binds”.

B4: BCMA-21 scFv (scFv)
scFv: EVQLVESGGGLVKPGGSLKLSCAASGFTFSDYYMSWIRQAPGKGLEWVSYISSSGSTIYYADSVKGRFTISRDNAKNSLYLQMNSLRAEDTAVYYCAKVDGGYTEDYWGQGTLVTVSSGGGGSGGGGSGGGGSQSVLTQPPSASGTPGQRVTISCSGSGSNIGSNDVSWYQQIPGTAPKLLIYWNDQRPSGVPDRFSGSKSGISASLAISGLRSEDEADYYCAAWDDSLNGYVFGTGTKVTVL
With B4, in assay [1], the fold selective binding (hBCMA-expressing HEK293 over parental HEK293) came out at 3.4 fold.

B5: BCMA-13 scFv (scFv)
scFv: QMQLVQYGGGVVQPGRSLRLSCAASGFTFSSYAMHWVRQAPGKGLEWVAVISYDGSNKYYADSVKGRFTISRDNSKNTLYLQMNSLKAEDTAVYYCATLPGRDGYPGAFDYRGQGTLVTVSSGGGGSGGGGSGGGGSQAVLTQPPSASGTPGQRVTISCSGSGSNIGSNDVSWYQQIPGTAPKLLIYWNDQRPSGVPDRFSASKSGTSASLAISGLRSEDEADYYCAAWDDSLGGSWVFGGGTKVTVL
In the case of B5, in assay [3], the binding result is “no binding”.

B6: BCMA-22 scFv (scFv)
scFv: EVQLVESGGGLVKPGGSLRLSCAASGFTFSDYYMSWIRQAPGKGLEWVSYISSSGSTIYYADSVKGRFTISRDNAKNSLYLQMNSLRAEDTAVYYCAKVDGDYTEDYWGQGTLVTVSSGGGGSGGGGSGGGGSQSALTQPASVSGSPGQSITISCTGSSSDVGKYNLVSWYQQPPGKAPKLIIYDVNKRPSGVSNRFSGSKSGNTATLTISGLQGDDEADYYCCSYGGSRSYVFGTGTKVTVL
For B6, the fold selective binding (hBCMA-expressing HEK293 over parental HEK293) in assay [1] worked out at 7.5 fold.
